Source: publication PMC11574045, “A cofactor-induced repressive type of transcription factor condensation can be induced by synthetic peptides to suppress tumorigenesis” (The EMBO Journal, 2024)

B1: ZNF165 (protein, UniProt P49910 1-485, looked up)
Zinc finger protein 165: MATEPKKAAAQNSPEDEGLLIVKIEEEEFIHGQDTCLQRSELLKQELCRQLFRQFCYQDSPGPREALSRLRELCCQWLKPEIHTKEQILELLVLEQFLTILPGDLQAWVHEHYPESGEEAVTILEDLERGTDEAVLQVQAHEHGQEIFQKKVSPPGPALNVKLQPVETKAHFDSSEPQLLWDCDNESENSRSMPKLEIFEKIESQRIISGRISGYISEASGESQDICKSAGRVKRQWEKESGESQRLSSAQDEGFGKILTHKNTVRGEIISHDGCERRLNLNSNEFTHQKSCKHGTCDQSFKWNSDFINHQIIYAGEKNHQYGKSFKSPKLAKHAAVFSGDKTHQCNECGKAFRHSSKLARHQRIHTGERCYECNECGKSFAESSDLTRHRRIHTGERPFGCKECGRAFNLNSHLIRHQRIHTREKPYECSECGKTFRVSSHLIRHFRIHTGEKPYECSECGRAFSQSSNLSQHQRIHMRENLLM
B2: ZKSCAN3 (protein, UniProt Q9BRR0 1-538, looked up)
Zinc finger protein with KRAB …: MARELSESTALDAQSTEDQMELLVIKVEEEEAGFPSSPDLGSEGSRERFRGFRYPEAAGPREALSRLRELCRQWLQPEMHSKEQILELLVLEQFLTILPGNLQSWVREQHPESGEEVVVLLEYLERQLDEPAPQVSGVDQGQELLCCKMALLTPAPGSQSSQFQLMKALLKHESVGSQPLQDRVLQVPVLAHGGCCREDKVVASRLTPESQGLLKVEDVALTLTPEWTQQDSSQGNLCRDEKQENHGSLVSLGDEKQTKSRDLPPAEELPEKEHGKISCHLREDIAQIPTCAEAGEQEGRLQRKQKNATGGRRHICHECGKSFAQSSGLSKHRRIHTGEKPYECEECGKAFIGSSALVIHQRVHTGEKPYECEECGKAFSHSSDLIKHQRTHTGEKPYECDDCGKTFSQSCSLLEHHRIHTGEKPYQCSMCGKAFRRSSHLLRHQRIHTGDKNVQEPEQGEAWKSRMESQLENVETPMSYKCNECERSFTQNTGLIEHQKIHTGEKPYQCNACGKGFTRISYLVQHQRSHVGKNILSQ
B3: ZGLP1 (protein, UniProt P0C6A0 1-273, looked up)
GATA-type zinc finger protein …: MEAEPIPDSSMPAKLLAPPCLNLERLGGSPSQEKPRTPGCCRISERSLWPACQESVTALCFLQETVERLGQSPAQDTPVLGPCWDPMALGTQGRLLLDRDSKDTQTRISQKGRRLQPPGTPSAPPQRRPRKQLNPCRGTERVDPGFEGVTLKFQIKPDSSLQIIPTYSLPCSSRSQESPADAVGGPAAHPGGTEAHSAGSEALEPRRCASCRTQRTPLWRDAEDGTPLCNACGIRYKKYGTRCSSCWLVPRKNVQPKRLCGRCGVSLDPIQEG
B4: ZNF250 (protein, UniProt P15622 1-560, looked up)
Zinc finger protein 250: MAAARLLPVPAGPQPLSFQAKLTFEDVAVLLSQDEWDRLCPAQRGLYRNVMMETYGNVVSLGLPGSKPDIISQLERGEDPWVLDRKGAKKSQGLWSDYSDNLKYDHTTACTQQDSLSCPWECETKGESQNTDLSPKPLISEQTVILGKTPLGRIDQENNETKQSFCLSPNSVDHREVQVLSQSMPLTPHQAVPSGERPYMCVECGKCFGRSSHLLQHQRIHTGEKPYVCSVCGKAFSQSSVLSKHRRIHTGEKPYECNECGKAFRVSSDLAQHHKIHTGEKPHECLECRKAFTQLSHLIQHQRIHTGERPYVCPLCGKAFNHSTVLRSHQRVHTGEKPHRCNECGKTFSVKRTLLQHQRIHTGEKPYTCSECGKAFSDRSVLIQHHNVHTGEKPYECSECGKTFSHRSTLMNHERIHTEEKPYACYECGKAFVQHSHLIQHQRVHTGEKPYVCGECGHAFSARRSLIQHERIHTGEKPFQCTECGKAFSLKATLIVHLRTHTGEKPYECNSCGKAFSQYSVLIQHQRIHTGEKPYECGECGRAFNQHGHLIQHQKVHRKL
B5: ZNF213 (protein, UniProt O14771 1-459, looked up)
Zinc finger protein 213: MAAPLEAQDQAPGEGEGLLIVKVEDSSWEQESAQHEDGRDSEACRQRFRQFCYGDVHGPHEAFSQLWELCCRWLRPELRTKEQILELLVLEQFLTVLPGEIQGWVREQHPGSGEEAVALVEDLQKQPVKAWRQDVPSEEAEPEAAGRGSQATGPPPTVGARRRPSVPQEQHSHSAQPPALLKEGRPGETTDTCFVSGVHGPVALGDIPFYFSREEWGTLDPAQRDLFWDIKRENSRNTTLGFGLKGQSEKSLLQEMVPVVPGQTGSDVTVSWSPEEAEAWESENRPRAALGPVVGARRGRPPTRRRQFRDLAAEKPHSCGQCGKRFRWGSDLARHQRTHTGEKPHKCPECDKSFRSSSDLVRHQGVHTGEKPFSCSECGKSFSRSAYLADHQRIHTGEKPFGCSDCGKSFSLRSYLLDHRRVHTGERPFGCGECDKSFKQRAHLIAHQSLHAKMAQPVG
B6: ZIC3 (protein, UniProt O60481 1-467, looked up)
Zinc finger protein ZIC 3: MTMLLDGGPQFPGLGVGSFGAPRHHEMPNREPAGMGLNPFGDSTHAAAAAAAAAAFKLSPAAAHDLSSGQSSAFTPQGSGYANALGHHHHHHHHHHHTSQVPSYGGAASAAFNSTREFLFRQRSSGLSEAASGGGQHGLFAGSASSLHAPAGIPEPPSYLLFPGLHEQGAGHPSPTGHVDNNQVHLGLRGELFGRADPYRPVASPRTDPYAAGAQFPNYSPMNMNMGVNVAAHHGPGAFFRYMRQPIKQELSCKWIDEAQLSRPKKSCDRTFSTMHELVTHVTMEHVGGPEQNNHVCYWEECPREGKSFKAKYKLVNHIRVHTGEKPFPCPFPGCGKIFARSENLKIHKRTHTGEKPFKCEFEGCDRRFANSSDRKKHMHVHTSDKPYICKVCDKSYTHPSSLRKHMKVHESQGSDSSPAASSGYESSTPPAIASANSKDTTKTPSAVQTSTSHNPGLPPNFNEWYV
B7: CARF (protein, UniProt Q9NXV6 2-580, looked up)
CDKN2A-interacting protein: AQEVSEYLSQNPRVAAWVEALRCDGETDKHWRHRRDFLLRNAGDLAPAGGAASASTDEAADAESGTRNRQLQQLISFSMAWANHVFLGCRYPQKVMDKILSMAEGIKVTDAPTYTTRDELVAKVKKRGISSSNEGVEEPSKKRVIEGKNSSAVEQDHAKTSAKTERASAQQENSSTCIGSAIKSESGNSARSSGISSQNSSTSDGDRSVSSQSSSSVSSQVTTAGSGKASEAEAPDKHGSASFVSLLKSSVNSHMTQSTDSRQQSGSPKKSALEGSSASASQSSSEIEVPLLGSSGSSEVELPLLSSKPSSETASSGLTSKTSSEASVSSSVAKNSSSSGTSLLTPKSSSSTNTSLLTSKSTSQVAASLLASKSSSQTSGSLVSKSTSLASVSQLASKSSSQTSTSQLPSKSTSQSSESSVKFSCKLTNEDVKQKQPFFNRLYKTVAWKLVAVGGFSPNVNHGELLNAAIEALKATLDVFFVPLKELADLPQNKSSQESIVCELRCKSVYLGTGCGKSKENAKAVASREALKLFLKKKVVVKICKRKYRGSEIEDLVLLDEESRPVNLPPALKHPQELL
B8: CARHSP1 (protein, UniProt Q9Y2V2 2-147, looked up)
Calcium-regulated heat-stable …: SSEPPPPPQPPTHQASVGLLDTPRSRERSPSPLRGNVVPSPLPTRRTRTFSATVRASQGPVYKGVCKCFCRSKGHGFITPADGGPDIFLHISDVEGEYVPVEGDEVTYKMCSIPPKNEKLQAVEVVITHLAPGTKHETWSGHVISS
B9: ZNF174 (protein, UniProt Q15697 1-407, looked up)
Zinc finger protein 174: MAAKMEITLSSNTEASSKQERHIIAKLEEKRGPPLQKNCPDPELCRQSFRRFCYQEVSGPQEALSQLRQLCRQWLQPELHTKEQILELLVMEQFLTILPPEIQARVRHRCPMSSKEIVTLVEDFHRASKKPKQWVAVCMQGQKVLLEKTGSQLGEQELPDFQPQTPRRDLRESSPAEPSQAGAYDRLSPHHWEKSPLLQEPTPKLAGTEAPRMRSDNKENPQQEGAKGAKPCAVSAGRSKGNGLQNPEPRGANMSEPRLSRRQVSSPNAQKPFAHYQRHCRVEYISSPLKSHPLRELKKSKGGKRSLSNRLQHLGHQPTRSAKKPYKCDDCGKSFTWNSELKRHKRVHTGERPYTCGECGNCFGRQSTLKLHQRIHTGEKPYQCGQCGKSFRQSSNLHQHHRLHHGD
B10: ZNF19 (protein, UniProt P17023 1-458, looked up)
Zinc finger protein 19: MAAMPLKAQYQEMVTFEDVAVHFTKTEWTGLSPAQRALYRSVMLENFGNLTALGYPVPKPALISLLERGDMAWGLEAQDDPPAERTKNVCKDVETNIDSESTLIQGISEERDGMMSHGQLKSVPQRTDFPETRNVEKHQDIPTVKNIQGKVPRIPCARKPFICEECGKSFSYFSYYARHQRIHTGEKPFECSECGKAFNGNSSLIRHQRIHTGERPYQCEECGRAFNDNANLIRHQRIHSGDRPYYCTECGNSFTSSSEFVIHQRIHTGEKPYECNECGKAFVGNSPLLRHQKIHTGEKPYECNECGKSFGRTSHLSQHQRIHTGEKPYSCKVCGQAFNFHTKLTRHQRIHSEEKPFDCVDCGKAFSAQEQLKRHLRIHTQESSYVCDECGKALTSKRNLHQHQRIHTGEKPYECSKYEKAFGTSSQLGHLEHVYSGEKPVLDICRFGLPEFFTPFYW
B11: ZFY (protein, UniProt P08048 1-801, looked up)
Zinc finger Y-chromosomal …: MDEDEFELQPQEPNSFFDGIGADATHMDGDQIVVEIQEAVFVSNIVDSDITVHNFVPDDPDSVVIQDVVEDVVIEEDVQCSDILEEADVSENVIIPEQVLDSDVTEEVSLPHCTVPDDVLASDITSTSMSMPEHVLTSESMHVCDIGHVEHMVHDSVVEAEIITDPLTSDIVSEEVLVADCAPEAVIDASGISVDQQDNDKASCEDYLMISLDDAGKIEHDGSTGVTIDAESEMDPCKVDSTCPEVIKVYIFKADPGEDDLGGTVDIVESEPENDHGVELLDQNSSIRVPREKMVYMTVNDSQQEDEDLNVAEIADEVYMEVIVGEEDAAVAAAAAAVHEQQIDEDEMKTFVPIAWAAAYGNNSDGIENRNGTASALLHIDESAGLGRLAKQKPKKKRRPDSRQYQTAIIIGPDGHPLTVYPCMICGKKFKSRGFLKRHMKNHPEHLAKKKYHCTDCDYTTNKKISLHNHLESHKLTSKAEKAIECDECGKHFSHAGALFTHKMVHKEKGANKMHKCKFCEYETAEQGLLNRHLLAVHSKNFPHICVECGKGFRHPSELRKHMRIHTGEKPYQCQYCEYRSADSSNLKTHIKTKHSKEMPFKCDICLLTFSDTKEVQQHTLVHQESKTHQCLHCDHKSSNSSDLKRHVISVHTKDYPHKCEMCEKGFHRPSELKKHVAVHKGKKMHQCRHCDFKIADPFVLSRHILSVHTKDLPFRCKRCRKGFRQQNELKKHMKTHSGRKVYQCEYCEYSTTDASGFKRHVISIHTKDYPHRCEYCKKGFRRPSEKNQHIMRHHKEVGLP

Tested on: HEK293FT cells transfected with TF library
Assay: Screening of TF condensates based on fluorescent puncta
Type: cell-based
Conditions: Figure 1B numerical data; TF library screen, one value per transcriptional factor
Method in brief: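 TF plasmids (final 1.6 μg/ml) reverse-transfected with PEI (4.8 μg/ml) into HEK293FT cells; after 60 h, cells cultured ±glucose for 12 h, fixed in 4% PFA and immunostained for Flag or GAL4 tags with Alexa 488 secondaries. Puncta scored by automated imaging of 50 random fields per well.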

Molecule | Z score of condensed fraction
B1 | 0.7106
B2 | 0.9842
B3 | -0.7375
B4 | -1.178
B5 | -0.4697
B6 | -0.3091
B7 | 2.409
B8 | 2.822
B9 | -0.9036
B10 | -0.9415
B11 | -1.019
